Where a chain is given by its changes, count along the chain named. Numbers in names are those of the source.
B1: hGPN06-1_H1L1 VL Y93A (antibody, V domains shown)
VH: QVQLVQSGAEVKKPGASVKVSCKASGYTFTDNWMGWVKQRPGQGLEWIGAIDPSDSFTNYNQNFKGRVTMTVDTSISTAYMELSRLRSDDSAVYFCTRSGYYGSPKLGGDYWGQGTLVTVSS
VL: EIVLTQSPSSLSASVGDRVTITCSASSSISYMHWYQQKSGTAPKLLIYSTSNLASGVPSRFSGSGSGTDFTFTISSLQPEDAATYYCHQWNSAPCTFGGGTKLEIK
B2: hGPN06-1_H1L1 VH D55A (antibody, V domains shown)
VH: B1 VH with D55A
VL: B1 VL with A93Y

Columns and labels:
[1] = target: recombinant human soluble gpNMB (recombinant human gpNMB-FLAG-His) (human) (UniProt Q14956); test: antigen ELISA
[2] = target: recombinant human soluble gpNMB (recombinant human gpNMB-FLAG-His) (human) (UniProt Q14956); test: antigen ELISA, vs hGPN06-1_H1L1

Binder | EC50 [1] | Relative binding activity [2]
B1 | 25.3 nM | 0
B2 | 31.5 nM | 0

From EP4772193A1
